Positions count from the first letter of the chain named.
T1: human ST2 (hST2, Interleukin-1 receptor-like 1 isoform A) on cells (human, UniProt Q01638 19-556)
T1 sequence: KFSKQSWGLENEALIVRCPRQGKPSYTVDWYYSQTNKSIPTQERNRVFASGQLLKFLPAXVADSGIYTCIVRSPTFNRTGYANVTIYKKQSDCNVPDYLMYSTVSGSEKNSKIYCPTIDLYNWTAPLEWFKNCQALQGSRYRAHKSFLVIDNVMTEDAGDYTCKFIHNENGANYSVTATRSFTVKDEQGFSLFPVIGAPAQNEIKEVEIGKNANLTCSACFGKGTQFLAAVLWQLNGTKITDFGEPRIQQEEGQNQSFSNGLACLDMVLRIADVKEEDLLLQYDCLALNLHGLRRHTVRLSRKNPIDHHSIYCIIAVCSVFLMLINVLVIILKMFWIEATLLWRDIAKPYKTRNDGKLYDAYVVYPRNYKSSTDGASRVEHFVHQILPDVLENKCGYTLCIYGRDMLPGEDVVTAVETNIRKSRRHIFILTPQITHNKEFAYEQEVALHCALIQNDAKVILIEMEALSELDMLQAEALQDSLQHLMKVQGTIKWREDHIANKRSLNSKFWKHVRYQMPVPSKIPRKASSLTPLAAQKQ

T2: recombinant protein containing hST2 extracellular domain with mouse antibody heavy chain Fc tag (hST2-ECD-mFc) (human)
T2 construct: Used for SPR and for ELISA of chimeric and humanized antibodies; also called human ST2 antigen
T2 chain: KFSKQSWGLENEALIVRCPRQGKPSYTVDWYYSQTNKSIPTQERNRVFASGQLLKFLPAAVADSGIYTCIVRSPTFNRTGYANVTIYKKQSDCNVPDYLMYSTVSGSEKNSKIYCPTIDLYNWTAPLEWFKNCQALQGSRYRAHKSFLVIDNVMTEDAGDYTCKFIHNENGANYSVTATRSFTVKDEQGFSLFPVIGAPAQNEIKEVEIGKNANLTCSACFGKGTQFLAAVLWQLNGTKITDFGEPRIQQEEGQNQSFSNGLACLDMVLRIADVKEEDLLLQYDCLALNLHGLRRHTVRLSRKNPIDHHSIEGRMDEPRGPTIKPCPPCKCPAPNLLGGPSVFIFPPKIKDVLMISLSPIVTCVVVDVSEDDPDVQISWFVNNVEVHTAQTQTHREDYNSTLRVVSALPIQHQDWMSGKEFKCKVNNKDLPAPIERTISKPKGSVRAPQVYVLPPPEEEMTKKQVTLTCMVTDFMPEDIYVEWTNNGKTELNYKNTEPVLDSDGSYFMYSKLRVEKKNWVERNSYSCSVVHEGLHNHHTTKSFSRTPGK

T3: cynomolgus monkey ST2 antigen (Cyno-ST2-his, Sino biological, 90915-C08H) (cynomolgus monkey, UniProt Q01638 19-328 (human entry))
T3 construct: Bought protein; not shown: his tag
T3 chain: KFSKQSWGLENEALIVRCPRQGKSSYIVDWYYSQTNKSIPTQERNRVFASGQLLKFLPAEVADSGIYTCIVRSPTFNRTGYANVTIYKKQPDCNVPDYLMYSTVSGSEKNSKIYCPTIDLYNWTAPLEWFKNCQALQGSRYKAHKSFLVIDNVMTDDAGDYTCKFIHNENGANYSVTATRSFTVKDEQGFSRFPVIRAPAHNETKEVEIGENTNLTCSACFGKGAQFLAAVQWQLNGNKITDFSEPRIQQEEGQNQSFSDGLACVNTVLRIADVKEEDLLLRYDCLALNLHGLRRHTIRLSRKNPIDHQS

B1: RG6149 (antibody Ab2 in CN104334582, prepared in-house) (antibody, human IgG2, kappa, V domains shown)
VH: EVQLVQSGAEVKKPGESLKISCKGSGYSFTNYWIGWVRQMPGKGLEWMGIIYPGNSDTRFSPSFQGQVTISADKSITTAYLQWSSLKASDTAMYYCARHGTSSDYYGLDVWGQGTTVTVSS
VL: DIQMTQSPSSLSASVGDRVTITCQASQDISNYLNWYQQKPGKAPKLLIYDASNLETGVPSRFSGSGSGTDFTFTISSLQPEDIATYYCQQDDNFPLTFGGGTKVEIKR
notes: Control anti-ST2 antibody
B2: GSK3772847 (antibody STLM208 in CN104411333, prepared in-house) (antibody, human IgG2, kappa, V domains shown)
VH: EVQLLESGGGLVQPGGSLRLSCAASGFTFSIYDMIWVRQAPGKGLEWVSSIRGEGGGTYYADSVKGRFTISRDNSKNTLYLQMNSLRAEDTAVYYCARDPWSTEGSFFVLDYWGQGTLVTVSS
VL: EIVLTQSPATLSLSPGERATLSCRASQSVDDDLAWYQQKPGQAPRLLIYDASNRATGIPARFSGSGSGTDFTLTISSLEPEDFAVYYCQQYITAPLTFGQGTKVEIKR
notes: Control anti-ST2 antibody
B3: Chimeric 31C8 (antibody, human IgG2, kappa, V domains shown)
VH: QVQLQQSGPELVRPGASVTLSCKASGYIFIDSEMHWVKQTPVHGLEWIGAIDPETGDTVYNQKFKGKATLTADKSSSTASMELSSLTSEDSAVYYCTGSTTDYYFAYWGQGTTLTVSS
VL: DIVMTQAAFSNPVTLGTSASISCRSSKSLLHSNGIIYLYWYLQKPGQSPQLLIYQMSNLASGVPDRFSSSGSGTDFTLRISRVEAEDVGVYYCAQNLELPFTFGSGTKLEIKR
notes: also called xi31C8
B4: Humanized 31C8-1.1 (antibody, human IgG2, kappa, V domains shown)
VH: EVQLVQSGAEVKKPGATVKISCKASGYIFIDSEMHWVQQAPGKGLEWMGAIDPETGDTVYAEKFQGRVTITADKSSSTAYMELSSLRSEDTAVYYCTGSTTDYYFAYWGQGTLVTVSS
VL: DIQMTQSPSSLSASVGDRVTITCRSSKSLLHSNGIIYLYWYQQKPGKAPKLLIYQLSNLASGVPSRFSSSGSGTDFTLTISSLQPEDFATYYCAQNLELPFTFGQGTKVEIKR
notes: also called hz31C8-1.1; hz31C81-1.1
B5: Humanized 31C8-1.2 (antibody, human IgG2, kappa, V domains shown)
VH: B4 VH with E1Q, E10K, E62K, Q65K
VL: B4 VL
notes: also called hz31C8-1.2; hz31C81-1.2

Target: T1, human ST2 (hST2, Interleukin-1 …)
Experiment: cell-based or functional assay

IC50, blocking of the IL33/ST2-induced IL5 secretion on CD4+ T cells (hIL33 plus IL2 co-stimulation)	Binder
1.82 nM	B1
0.794 nM	B2
0.44 nM	B3
0.462 nM	B4
0.366 nM	B5

Target: T2, recombinant protein containing hST2 …
Experiment: SPR (Biacore T200), hST2-ECD-mFc captured by anti-mouse IgG on CM5, antibody as analyte, 1:1 model
Method: (§1) The reaction signals were detected in real time using a Biacore instrument (Cytiva, BiacoreT200), and then an association-dissociation curve was obtained. After the completion of dissociation in each cycle, the biochip was regenerated with a regeneration solution for the next capture; the procedure was repeated until the affinity of the different antibodies for ST2 was determined. The acquired data were finally analyzed using the GE BIAevaluation software with a 1:1 (Langmuir) binding model to determine the association rate constants ka (kon) and the dissociation rate constants kd (koff), and the dissociation constants KD were given by KD = kd/ka. The determined affinity of the anti-ST2 antibody for human ST2 antigen (hST2-ECD-mFc), cynomolgus monkey ST2 antigen (Cyno-ST2-his, Sino biological, 90915-C08H) and the determined affinity of the anti-ST2 chimeric antibodies for ST2 were shown in Table 5.
(§2) The humanized antibodies hz31C81-1.1 (the amino acid sequence of the heavy chain set forth in SEQ ID NO: 75 and the amino acid sequence of the light chain set forth in SEQ ID NO: 81) and hz31C8-1.2 (the amino acid sequence of the heavy chain set forth in SEQ ID NO: 77 and the amino acid sequence of the light chain set forth in SEQ ID NO: 81) were subjected to affinity, binding, blocking and cell function analyses using the methods described in Example 4, Example 5, Example 6, Example 7, Example 8, Example 9 and Example 10. In the present disclosure, “hz” and “xi” denote humanized antibodies and chimeric antibodies, respectively; for example, “hz31C81-1.1” and “hz31C81-1.2” represent humanized 31C81-1.1 and 31C81-1.2 antibodies, and “xi31C8” represents a chimeric 31C8 antibody.

Kd	Binder
0.128 nM	B1
0.0958 nM	B2
0.129 nM	B3
0.0836 nM	B4
0.145 nM	B5

Target: T3, cynomolgus monkey ST2 antigen …
Experiment: SPR (Biacore T200), Cyno-ST2-his captured by anti-his antibody on CM5, antibody as analyte, 1:1 model
Method: as §1, §2

Kd	Binder
0.069 nM	B1
0.0923 nM	B2
1.62 nM	B3
2.47 nM	B4
5.27 nM	B5

Source: patent publication US20230272086A1 (CHIA TAI TIANQING PHARMACEUTICAL GROUP, published 2023)
